Data as given in patent publication US6828106 (dated 2004).
Where no end group is shown, it is not given here. fluorescein or rhodamine = not defined here

Columns and labels:
[1] = target: the molecule itself; test: FRET (fluorescein/rhodamine) and fluorescence polarization (fluorescein/biotin), 6 µM total peptide, 6:1
[2] = target: the molecule itself; test: FRET between the fluorescein- and rhodamine-labelled forms of the same peptide (homodimer)
[3] = target: T1, reporter peptide 1 (Example 10), labeled with fluorescein (labeled with fluorescein (site not stated)); test: FRET (fluorescein/rhodamine), 5 µM total peptide, 1:1
T1 construct: Heterodimer partner in the thrombin assay
T1 peptide: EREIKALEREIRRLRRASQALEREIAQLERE

[4] = target: T2, peptide 1 (Example 8), labeled with fluorescein (labeled with fluorescein (site not stated)); test: FRET (fluorescein/rhodamine) and fluorescence polarization (fluorescein/biotin with streptavidin), 6 µM total peptide, 1:1
T2 construct: Heterodimer partner in the chymotrypsin assays
T2 peptide: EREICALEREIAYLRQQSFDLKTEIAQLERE

[5] = target: T3, peptide C labelled with rhodamine (CR) (not fully specified; N-terminal acetyl; C-terminal amide; labelled with rhodamine (or vice versa with fluorescein)); test: FRET between fluorescein- and rhodamine-labelled peptides
T3 construct: Artificial designer peptide, one partner of a heterodimeric coiled coil
T3 peptide: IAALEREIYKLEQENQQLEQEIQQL

B1: reporter peptide (Example 9, TEV) (peptide)
peptide: KGRMRCLEDRVENLYSQSYHLENEVARLRRLVGELAAK
modifications: not fully specified; also: homodimer
notes: Forms a homodimer; All labelled forms are written as one molecule (6:1 ratio R:F or biotin:F)
- binding result [1]: binds

B2: Peptide 2 (Example 3, TEV protease cleavage site) (peptide)
peptide: RMKQLEDKVENLYSQSYHLENEVAC(fluorescein or rhodamine)LKKLVGER
modifications: reading uncertain
notes: GCN4-derived homodimeric reporter; The fluorescein- and rhodamine-labelled forms are written as one molecule
- binding result [2]: binds

B3: Peptide 4 (Example 5, caspase 2, 3, 7 site) (peptide)
peptide: RMKQLEDKVEELLDENDHLENEVACLKKLVGER
modifications: also: fluorescein or rhodamine label, site not given here
notes: GCN4-derived homodimeric reporter; Both labelled forms are written as one molecule
- binding result [2]: binds

B4: reporter peptide 2 (Example 10), labeled with rhodamine (peptide)
peptide: LRQRIQCLRYRIRRLRRASQALRQRIAQLKQR
modifications: also: rhodamine label, site not given here
notes: Heterodimer partner in the thrombin assay
- binding result [3]: binds

B5: peptide 2 (Example 8), labeled with rhodamine (FRET) or biotin (FP) (peptide)
peptide: LRQRIQCLRQKIAYLRQQSFDLKTQIAQLRQR
modifications: also: rhodamine or biotin label, site not given here
notes: Heterodimer partner in the chymotrypsin assays; Both labelled forms are written as one molecule
- binding result [4]: binds

B6: peptide B labelled with fluorescein (BF) (peptide)
peptide: IAALRERICYLRERNQQLRQRIQQL
modifications: not fully specified; also: fluorescein label, site not given here
notes: Artificial designer peptide, one partner of a heterodimeric coiled coil
- binding result [5]: binds
